Patent publication US20230365667A1 (Merck Sharp & Dohme, published 2023)
Residue numbers refer to the chain shown, from its start.

B1: vhhLib05-49 (VHH)
VHH: EVQLLESGGGLVQPGGSLRLSCAASGFTFSSYAMSWVRQAPGKQREWVSAISGSGGSTYYADSVKGRFTISRDNSKNTLYLQMNSLRAEDTAVYYCARDTNQPYHGRYVYTYDFDVWGQGTLVTVSS
notes: also called 20BHK
B2: vhhLib02-37 (VHH)
VHH: EVQLVESGGGLVQPGGSLRLSCAASGFTFSDYVMSWYRQAPGKQRELVSAIISGEDTYYADSVKGRFTISRDNSKNTLYLQMNSLRAEDTAVYYCARYVHKSTWYYFDHWGQGTLVTVSS
notes: The entry as printed includes HHHHHH; also called vhbLib02-37
B3: vhhLib05-8 (VHH)
VHH: EVQLLESGGGLVQPGGSLRLSCAASGFTFSSYAMSWVRQAPGKQREWVSAISGSGGRTYYADSVKGRFTISRDNSKNTLYLQMNSLRAEDTAVYYCARHSIPVDGIVAFDHWGQGTLVTVSS
notes: The entry as printed includes a doubled TLVTVSS and HHHHHH; also called 13BHK
B4: vhhLib05-10 (VHH)
VHH: B3 VHH with R57S, H99V, S100V, I101K, P102V, V103D, G105I, I106V, V107H, H111I
notes: The entry as printed includes a doubled TLVTVSS and HHHHHH
B5: vhhLib01-34 (VHH)
VHH: QVQLVESGGGLVQPGGSLRLSCAASGSIFSVNRMGWYRQAPGKQRELVAAIISGGATNYADSVKGRFTISRDNAKNTVYLQMNSLKPEDTAVYYCARRPAPNGRYHSWYAFDYWGQGTLVTVSS
notes: The entry as printed includes HHHHHH
B6: vhhLib05-25 (VHH)
VHH: EVQLLESGGGLVQPGGSLRLSCAASGFTFSSYAMSWVRQAPGKQREWVSAISGSGGSTYYADSVKGRFTISRDNSKNTLYLQMNSLRAEDTAVYYCARHRQADGITYFDIWGQGTLVTVSS
notes: as for B4
B7: vhhLib05-5 (VHH)
VHH: B6 VHH with H99L, R100D, Q101Y, A102T, T106N, I110Y
notes: as for B4
B8: vhhLib05-14 (VHH)
VHH: B6 VHH with H99L, R100S, Q101I, A102V, G104V, I105V, Y107V, I110V
notes: as for B4
B9: vhhLib01-86 (VHH)
VHH: QVQLVESGGGLVQPGGSLRLSCAASGSIFSANHMGWYRQAPGKQRELVAAILSGGVTNYADSVKGRFTISRDNAKNTVYLQMNSLKPEDTAVYYCARGQVDTKYGYYYFDSWGQGTLVTVSS
notes: The entry as printed includes a doubled TLVTVSS and HHHHHH; also called vhbLib01-86
B10: vhhLib02-53 (VHH)
VHH: EVQLVESGGGLVQPGGSLRLSCAASGFTFSRYLMSWYRQAPGKQRELVGAIASGGVTYYADSVKGRFTISRDNSKNTLYLQMNSLRAEDTAVYYCARGNPSERLYYYFDYWGQGTLVTVSS
notes: The entry as printed includes HHHHHH; also called 06BHK
B11: vhhLib02-93 (VHH)
VHH: EVQLVESGGGLVQPGGSLRLSCAASGFTFSDYHMSWYRQAPGKQREPVSVINSGGYTYYADSVKGRFTISRDNSKNTLYLQMNSLRAEDTAVYYCARAQAAHYLYGYFDIWGQGTLVTVSS
notes: as for B5
B12: vhhLib02-91 (VHH)
VHH: EVQLVESGGGLVQPGGSLRLSCAASGFTVSDYHMSWYRQAPGKQRELVSVILSGGRTYYADSVKGRFTISRDNSKNTLYLQMNSLRAEDTAVYYCARADAIFPWFDVWGQGTLVTVSS
notes: The entry as printed includes HHHHHH; also called 09BHK
B13: vhhLib05-33 (VHH)
VHH: EVQLLESGGGLVQPGGSLRLSCAASGFTFSSYAMSWVRQAPGKQREWVSAISGSGGSTYYADSVKGRFTISRDNSKNTLYLQMNSLRAEDTAVYYCARLQGVQSDEVYYNYFDVWGQGTLVTVSS
notes: The entry as printed includes a doubled TLVTVSS and HHHHHH; also called vhbLib05-33
B14: vhhLib05-28 (VHH)
VHH: B13 VHH with S25A, Q100S, G101H, V102N, Q103S, S104Q, D105G, E106T, Y108V, V114I
notes: as for B4
B15: vhhLib05-78 (VHH)
VHH: B13 VHH with S35T, Q100A, G101T, V102H, Q103V, S104D, D105N, E106G, V107L, Y108G
notes: as for B4
B16: vhhLib05-83 (VHH)
VHH: EVQLLESGGGLVQPGGSLRLSCAASGFTFSNYAMSWVRQAPGKQREWVSAISGSGGSTYYADSVKGRFTISRDNSKNTLYLQMNSLRAEDTAVYYCARLFLQQADGLYYYYAFDPWGQGTPVTVSS
notes: The entry as printed includes a doubled TLVTVSS-like stretch and HHHHHH
B17: vhhLib05-21 (VHH)
VHH: EVQLLESGGGLVQPGGSLRLSCAASGFTFSNYAMSWVRQAPGKQREWVSVISGNGSSTYYADSVKGRFTISRDNSKNTLYLQMNSLRAEDTAVYYCARLVQLPWVPISAFDVWGQGTLVTVSS
notes: The entry as printed includes a doubled TLVTVSS and HHHHHH; also called 16BHK
B18: vhhLib01-49 (VHH)
VHH: QVQLVESGGGLVQPGGSLRLSCAASGSIFSHNTMGWYRQAPGKQRELVAAINSGGSTNYADSVKGRFTISRDNAKNTVYLQMNSLKPEDTAVYYCARYIQTYTWGYFDYWGQGTLVTVSS
notes: as for B5
B19: vhhLib01-48 (VHH)
VHH: QVQLVESGGGLVQPGGSLRLSCAASGSIFSANIMGWYRQAPGKQRELVAAIVSGGYTNYADSVKGRFTISRDNAKNTVYLQMNSLKPEDTAVYYCARDQDAFDHVGQYFDHWGQGTLVTVSS
notes: as for B5
B20: vhhLib01-75 (VHH)
VHH: QVQLVESGGGLVQPGGSLRLSCAASGSIFSSNRMGWYRQAPGKQRELVAAIFSGGHTNYADSVKGRFTISRDNAKNTVYLQMNSLKPEDTAVYYCARPVDWSGPFDIWGQGTLVTVSS
notes: as for B5
B21: vhhLib02-64 (VHH)
VHH: EVQLVESGGGLVQPGGSLRLSCAASGFTFSGYFMSWYRQAPGKQRELVSVINSGGSTYYADSVKGRFTISRDNSKNTLYLQMNSLRAEDTAVYYCARGRVATGGGYGFVHYFDVWGQGTLVTVSS
notes: as for B5
B22: vhhLib01-2 (VHH)
VHH: QVQLVESGGGLVQPGGSLRLSCAASGSIFSANHMGWYRQAPGKQRELVAAISSGGLTNYADSVKGRFTISRDNAKNTVYLQMNSLKPEDTAVYYCARHQTKIYNLHYYYFDYWGQGTLVTVSS
notes: as for B5
B23: vhhLib01-3 (VHH)
VHH: QVQLVESGGGLVQPGGSLRLSCAASGSIFSFNLMGWYRQAPGKQRELVAAINSGGSTNYADSVKGRFTISRDNAKNTVYLQMNSLKPEDTAVYYCARDYTVYVSYYDGRFDYWGQGTLVTVSS
notes: as for B5
B24: vhhLib02-21 (VHH)
VHH: EVQLVESGGGLVQPGGSLRLSCAASGFTFSLYTMSWYRQAPGKQRELVSAISSGGSTYYADSVKGRFTISRDNSKNTLYLQMNSLRAEDTAVYYCARYDYSWWYFDLWGQGTLVTVSS
notes: as for B5
B25: vhhLib02-26 (VHH)
VHH: EVQLVESGGGLVQPGGSLRLSCAASGFTFSAYIMSWYRQAPGKQRELVGAIVSGGLTYYADSVKGRFTISRDNSKNTLYLQMNSLRAEDTAVYYCARHWRWYDSNLVFDLWGQGTLVTVSS
notes: as for B5
B26: vhhLib01-58 (VHH)
VHH: QVQLVESGGGLVQPGGSLRLSCAASGSIFSPNHMGWYRQAPGKQRELVAAIYSGGTTNYADSVKGRFTISRDNAKNTVYLQMNSLKPEDTAVYYCARRTFLRGWSGYLPWFDVWGQGTLVTVSS
notes: as for B5

Each binder was assayed against T1, Abeta peptide (40-amino acid Abeta peptide, SEQ ID NO: 1), biotinylated (human, N-terminal biotin or C-terminal lysine-linked biotin, separated from the peptide by a PEG6 linker) (assay: BLI (Octet HTX), biotinylated Abeta on streptavidin sensors, 1 uM VHH, 1:1 fit).
T1 construct: Synthesized by Genscript; also called amyloid beta; test peptide
T1 sequence (peptide, as listed by the source): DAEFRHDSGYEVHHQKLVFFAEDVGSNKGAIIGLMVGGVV
Method: Binding affinity was measured using Biolayer Interferometry (BLI) with a ForteBio Octet HTX instrument. Biotinylated antigen was loaded onto streptavidin biosensors at a concentration of 100 nM in kinetics buffer (PBS+1% BSA). The binding experiments were performed with the following steps: 1) baseline in kinetics buffer for 30 seconds, 2) loading of antigen for 180 seconds, to achieve a loading response of at least 1 nm, 3) baseline for 60 seconds, 4) association of 1 μM VHH for 300 seconds, and 5) dissociation into kinetics buffer for 180 seconds. Curves were fit to a 1:1 binding model using the ForteBio software. A negative control was included in all plates, which was un-transfected mammalian cells subjected to the same purification process, to account for the effect of any carryover protein contaminants from cell culture.
In the case of B1, the Kd is reported as 5.3 nM, the koff is reported as 6.73e-05 s⁻¹ and the kon is reported as 12600 M⁻¹ s⁻¹. Work on B2 yielded a Kd of 328 nM, a koff of 0.00105 s⁻¹ and a kon of 3210 M⁻¹ s⁻¹. Work on B3 yielded a Kd of 25.4 nM, a koff of 0.000269 s⁻¹ and a kon of 10600 M⁻¹ s⁻¹. With B4 the Kd was 176 nM, the koff was 0.00127 s⁻¹ and the kon was 7170 M⁻¹ s⁻¹. B5 was tested, and the Kd was 367 nM, the koff was 0.00268 s⁻¹ and the kon was 7320 M⁻¹ s⁻¹. B6 was tested, and the Kd was 23.9 nM, the koff was 0.000337 s⁻¹ and the kon was 14100 M⁻¹ s⁻¹. Work on B7 yielded a Kd of 189 nM, a koff of 0.000882 s⁻¹ and a kon of 4660 M⁻¹ s⁻¹. In the case of B8, the Kd is reported as 39.9 nM, the koff is reported as 0.000443 s⁻¹ and the kon is reported as 11100 M⁻¹ s⁻¹. For B9, the Kd was 430 nM, the koff was 0.0033 s⁻¹ and the kon was 7670 M⁻¹ s⁻¹. Binder B10 has a Kd of 42.6 nM, a koff of 0.000447 s⁻¹ and a kon of 10500 M⁻¹ s⁻¹. For B11, the Kd was 469 nM, the koff was 0.00314 s⁻¹ and the kon was 6700 M⁻¹ s⁻¹. Work on B12 yielded a Kd of 43.1 nM, a koff of 0.00046 s⁻¹ and a kon of 10700 M⁻¹ s⁻¹. Work on B13 yielded a Kd of 633 nM, a koff of 0.00297 s⁻¹ and a kon of 4680 M⁻¹ s⁻¹. For B14, the Kd was 114 nM, the koff was 0.000725 s⁻¹ and the kon was 6370 M⁻¹ s⁻¹. Work on B15 yielded a Kd of 214 nM, a koff of 0.00133 s⁻¹ and a kon of 6200 M⁻¹ s⁻¹. B16 showed a Kd of 292 nM, a koff of 0.00112 s⁻¹ and a kon of 3830 M⁻¹ s⁻¹. B17 gave a Kd of 104 nM, a koff of 0.00111 s⁻¹ and a kon of 10700 M⁻¹ s⁻¹. Binder B18 has a Kd of 116 nM, a koff of 0.000734 s⁻¹ and a kon of 6320 M⁻¹ s⁻¹. With B19 the Kd was 153 nM, the koff was 0.00333 s⁻¹ and the kon was 21800 M⁻¹ s⁻¹. With B20 the Kd was 185 nM, the koff was 0.00324 s⁻¹ and the kon was 17500 M⁻¹ s⁻¹. With B21 the Kd was 210 nM, the koff was 0.0029 s⁻¹ and the kon was 13800 M⁻¹ s⁻¹. B22 showed a Kd of 212 nM, a koff of 0.00632 s⁻¹ and a kon of 29800 M⁻¹ s⁻¹. B23 was tested, and the Kd was 239 nM, the koff was 0.00353 s⁻¹ and the kon was 14800 M⁻¹ s⁻¹. For B24, the Kd was 244 nM, the koff was 0.000724 s⁻¹ and the kon was 2970 M⁻¹ s⁻¹. For B25, the Kd was 249 nM, the koff was 0.0137 s⁻¹ and the kon was 55000 M⁻¹ s⁻¹. B26 showed a Kd of 264 nM, a koff of 0.0045 s⁻¹ and a kon of 17000 M⁻¹ s⁻¹.
